Experimental data taken from patent publication US20190111115A1.

Experiments:
Test in all cases: ELISA
Mouse FcRIV = biological target: Mouse FcRIV
Human FcRn = biological target: Human FcRn
Human FcRIIA[H] (human) = Human FcRIIA[H] (human) (UniProt P12318)
Human FcRIII (human) = biological target: Human FcRIII (human)
Human FcRIIA[R] = biological target: Human FcRIIA[R]
Mouse FcRI = biological target: Mouse FcRI
Human FcRIIB = biological target: Human FcRIIB
Mouse FcRIIB = biological target: Mouse FcRIIB
Human FcR1 (human) = Human FcR1 (human) (UniProt P12314)
Chain of Human FcR1 (human) (P12314 16-292): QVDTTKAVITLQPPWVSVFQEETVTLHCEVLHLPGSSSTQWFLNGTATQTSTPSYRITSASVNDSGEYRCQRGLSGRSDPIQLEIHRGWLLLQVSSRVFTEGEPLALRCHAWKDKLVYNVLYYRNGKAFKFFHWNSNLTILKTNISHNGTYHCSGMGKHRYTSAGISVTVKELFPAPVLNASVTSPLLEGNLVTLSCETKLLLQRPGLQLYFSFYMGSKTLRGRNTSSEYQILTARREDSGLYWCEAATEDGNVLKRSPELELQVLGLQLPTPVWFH

Chain of Mouse FcRIV (A0A0B4J1G0 21-203): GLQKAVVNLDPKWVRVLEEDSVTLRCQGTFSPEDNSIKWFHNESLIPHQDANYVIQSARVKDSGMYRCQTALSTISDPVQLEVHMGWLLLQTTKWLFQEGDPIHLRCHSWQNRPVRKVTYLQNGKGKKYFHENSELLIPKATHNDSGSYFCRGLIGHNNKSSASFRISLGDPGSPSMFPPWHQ
Chain of Human FcRIII (human) (P08637 17-208): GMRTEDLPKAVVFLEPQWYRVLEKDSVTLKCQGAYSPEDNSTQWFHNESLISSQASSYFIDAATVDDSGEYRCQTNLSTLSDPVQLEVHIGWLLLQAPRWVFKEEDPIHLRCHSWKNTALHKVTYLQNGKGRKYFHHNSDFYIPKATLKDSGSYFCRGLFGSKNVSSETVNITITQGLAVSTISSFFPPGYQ
Chain of Human FcRIIA[H] (human) (P12318 34-217): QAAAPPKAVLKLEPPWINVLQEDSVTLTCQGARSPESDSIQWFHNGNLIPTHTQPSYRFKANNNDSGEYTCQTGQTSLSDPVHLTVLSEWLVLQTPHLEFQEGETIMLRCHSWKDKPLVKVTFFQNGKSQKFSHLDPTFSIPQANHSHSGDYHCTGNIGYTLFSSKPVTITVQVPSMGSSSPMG

IgG1
Kd (Mouse FcRIV): 6.52 nM | Kd (Human FcRn): 14 nM | Kd (Human FcRIIA[H] (human)): 333 nM | Kd (Human FcRIII (human)): 1180 nM | Kd (Human FcRIIA[R]): 200 nM | Kd (Mouse FcRI): 1.33 nM | Kd (Human FcRIIB): 876 nM | Kd (Mouse FcRIIB): 375 nM | Kd (Human FcR1 (human)): 0.161 nM
